US10464987B2

Legend:
[1] = molecular target: SIY peptide on H-2Kb (mouse); test: value stated for 2C in the legend of FIG. 16, no measurement described; given for scTv and full-length constructs alike
[2] = molecular target: SIY peptide on H-2Kb (mouse); test: value cited from Chervin et al. 2009 (ref 18); not measured in this filing
[3] = molecular target: SIY peptide on H-2Kb (mouse); test: value stated for m33 in the legend of FIG. 16, no measurement described; given for scTv and full-length constructs alike

| Kd [1] [nM] | Kd [2] [nM] | Kd [3] [nM] | Substance |
| --- | --- | --- | --- |
| 30000 |  |  | 2C full-length TCR |
|  | 16 | 30 | m33 full-length TCR |
